T1: human MAdCAM expressed on cells (human, UniProt Q13477 19-382)
T1 construct: whole, on cells; also called MADCAM1
T1 sequence (looked up): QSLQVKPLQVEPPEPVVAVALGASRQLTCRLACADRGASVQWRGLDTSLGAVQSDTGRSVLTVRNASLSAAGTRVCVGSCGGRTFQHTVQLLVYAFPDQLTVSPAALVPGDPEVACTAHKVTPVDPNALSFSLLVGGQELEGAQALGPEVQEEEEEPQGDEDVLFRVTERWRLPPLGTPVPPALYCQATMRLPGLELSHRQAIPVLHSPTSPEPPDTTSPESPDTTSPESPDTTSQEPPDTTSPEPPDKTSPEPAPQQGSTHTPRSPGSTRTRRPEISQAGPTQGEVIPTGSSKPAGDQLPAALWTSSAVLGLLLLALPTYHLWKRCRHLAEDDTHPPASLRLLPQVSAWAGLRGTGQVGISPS

T2: mouse MAdCAM expressed on cells (mouse, UniProt Q61826 22-405)
T2 construct: whole, on cells
T2 sequence (looked up): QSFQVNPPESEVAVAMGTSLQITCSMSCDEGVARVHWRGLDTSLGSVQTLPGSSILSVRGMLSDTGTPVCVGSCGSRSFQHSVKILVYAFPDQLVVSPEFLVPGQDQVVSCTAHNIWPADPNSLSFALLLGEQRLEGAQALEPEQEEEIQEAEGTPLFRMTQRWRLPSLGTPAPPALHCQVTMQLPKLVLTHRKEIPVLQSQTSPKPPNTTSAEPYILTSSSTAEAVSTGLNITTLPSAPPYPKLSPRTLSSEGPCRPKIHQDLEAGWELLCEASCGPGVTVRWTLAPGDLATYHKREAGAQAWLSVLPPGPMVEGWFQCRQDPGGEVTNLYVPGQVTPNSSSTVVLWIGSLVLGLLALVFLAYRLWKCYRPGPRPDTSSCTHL


Legend:
[1] = molecular target: T1, human MAdCAM expressed on cells; experiment: cell binding
[2] = molecular target: T2, mouse MAdCAM expressed on cells; experiment: cell binding

binding result [1]	binding result [2]	Binder
binds	no binding	MAdCAM Antibody Table 1 Clone 16 (scFv) scFv: EVQLLESGGGLVQPGGSLRLSCAASGFTFEDYAMHWVRQAPGKGLEWVSYLNSDGGSTSYADSVKGRFTISRDNSKNTLYLQMNSLRAEDTAVYYCAKDYCTNGVCAFDYWGQGTLVTVSSGGGGSGGGGSGGGGSGGGGSDIQMTQSPSSLSASVGDRVTITCRASQSISTYLNWYQQKPGKAPKLLIYDASNLETGVPSRFSGSGSGTDFTLTISSLQPEDFATYYCQQSYTIPITFGQGTRLEIK
binds	no binding	MAdCAM Antibody Table 1 Clone 10 (scFv) scFv: QVQLVQSGAEVKKPGASVKVSCKASGYTLTTWYMYWVRQAPGQGLEWMGWINPNRGATNYAQKFQGRVTMTRDTSTSTVYMELSSLRSEDTAVYYCAKGDLWGAMDVWGQGTLVTVSSGGGGSGGGGSGGGGSGGGGSDIQMTQSPSSLSASVGDRVTITCRASDNIGSWLAWYQQKPGKAPKLLIYAASSLQSGVPSRFSGSGSGTDFTLTISSLQPEDFATYYCQQGYSTPPTFGQGTKVEIK
binds	no binding	MAdCAM Antibody Table 1 Clone 26 (scFv) scFv: QVQLVQSGAEVKKPGASVKVSCKASGYTLTTWYMYWVRQAPGQGLEWMGWINPNRGATNYAQKFQGRVTMTRDTSTSTVYMELSSLRSEDTAVYYCAKGDLWGAMDVWGQGTTVTVSSGGGGSGGGGSGGGGSGGGGSDIQMTQSPSSLSASVGDRVTITCRASDNIGSWLAWYQQKPGKAPKLLIYAASSLQSGVPSRFSGSGSGTDFTLTISSLQPEDFATYYCQQGYSTPPTFGQGTKVEIK
binds	no binding	MAdCAM Antibody Table 1 Clone 31 (scFv) scFv: QVQLVQSGAEVKKPGASVKVSCKASGYTFTSYYMHWVRQAPGQGLEWMGIINPSGGSTSYAQKFQGRVTMTRDTSTSTVYMELSSLRSEDTAVYYCARDTGYSYGRYYYYGMDVWGQGTLVTVSSGGGGSGGGGSGGGGSGGGGSDIQMTQSPSSLSASVGDRVTITCRASQSIGRWLAWYQQKPGKAPKLLIYDASNLQSGVPSRFSGSGSGTDFTLTISSLQPEDFATYYCQQSYSIPITFGQGTKVEIK
binds	no binding	MAdCAM Antibody Table 1 Clone 36 (scFv) scFv: QVQLVQSGAEVKKPGASVKVSCKASGYTFTGHYMHWVRQAPGQGLEWMGIINPSGGSTSYAQKFQGRVTMTRDTSTSTVYMELSSLRSEDTAVYYCARDTGYSYGRYYYYGMDVWGQGTTVTVSSGGGGSGGGGSGGGGSGGGGSDIQMTQSPSSLSASVGDRVTITCRASQSIGRWLAWYQQKPGKAPKLLIYDASNLQSGVPSRFSGSGSGTDFTLTISSLQPEDFATYYCQQSYSIPITFGGGTKVEIK
binds	no binding	MAdCAM Antibody Table 1 Clone 14 (scFv) scFv: QVQLVQSGAEVKKPGSSVKVSCKASGYTFTDYHIHWVRQAPGQGLEWMGGIVPRSGSTTYAQKFQGRVTITADESTSTAYMELSSLRSEDTAVYYCAKDESSGWYYFDYWGQGTLVTVSSGGGGSGGGGSGGGGSGGGGSDIVMTQSPLSLPVTPGEPASISCRSSQSLLHSNGYNYLDWYLQKPGQSPQLLIYSAYNRASGVPDRFSGSGSGTDFTLKISRVEAEDVGVYYCMQALQTPLTFGQGTKVEIK
binds	no binding	MAdCAM Antibody Table 1 Clone 29 (scFv) scFv: QVQLVQSGAEVKKPGASVKVSCKASGYTFTSYYMHWVRQAPGQGLEWMAWMNPNSGNTGYAQKFQGRVTMTRDTSTSTVYMELSSLRSEDTAVYYCARDYDFWSGSLGYWGQGTLVTVSSGGGGSGGGGSGGGGSGGGGSDIQMTQSPSSLSASVGDRVTITCRASQGISNYLAWYQQKPGKAPKLLIYAASSLQSGVPSRFSGSGSGTDFTLTISSLQPEDFATYYCQQSYSTPWTFGQGTKVEIK
binds	no binding	MAdCAM Antibody Table 1 Clone 28 (scFv) scFv: QVQLVQSGAEVKKPGASVKVSCKASGYTFTDYFLHWVRQAPGQGLEWMGWMNPTSGNTGYAQKFQGRVTMTRDTSTSTVYMELSSLRSEDTAVYYCAREGEGSGFDYWGQGTLVTVSSGGGGSGGGGSGGGGSGGGGSDIQMTQSPSSLSASVGDRVTITCRASQGINSWLAWYQQKPGKAPKLLIYDASNLETGVPSRFSGSGSGTDFTLTISSLQPEDFATYYCQQSYSTPLTFGGGTKVEIK
binds	no binding	MAdCAM Antibody Table 1 Clone 13 (scFv) scFv: EVQLLESGGGLVQPGGSLRLSCAASGFTFDDYAMHWVRQAPGKGLEWVSYIDASGTTIYYADSVKGRFTISRDNSKNTLYLQMNSLRAEDTAVYYCAKDQAAAGYWYFDLWGRGTLVTVSSGGGGSGGGGSGGGGSGGGGSDIQMTQSPSSLSASVGDRVTITCQASQDISNYLNWYQQKPGKAPKLLIYKASTLESGVPSRFSGSGSGTDFTLTISSLQPEDFATYYCQQSYSTPITFGQGTRLEIK
binds	no binding	MAdCAM Antibody Table 1 Clone 21 (scFv) scFv: EVQLLESGGGLVQPGGSLRLSCAASGFTFSNAWMSWVRQAPGKGLEWVSTIVGNGGATYYADSVKGRFTISRDNSKNTLYLQMNSLRAEDTAVYYCARDNPLRWQGMDVWGQGTLVTVSSGGGGSGGGGSGGGGSGGGGSDIQMTQSPSSLSASVGDRVTITCRASQDISNYLNWYQQKPGKAPKLLIYAASSLQSGVPSRFSGSGSGTDFTLTISSLQPEDFATYYCQQSYSIPPTFGPGTKVDIK
binds	no binding	MAdCAM Antibody Table 1 Clone 15 (scFv) scFv: QVQLVQSGAEVKKPGSSVKVSCKASGYTFTNYYMHWVRQAPGQGLEWMGGIIPIVDRVKYAQKFQGRVTITADESTSTAYMELSSLRSEDTAVYYCAKGRYTVNYYYGMDVWGQGTTVTVSSGGGGSGGGGSGGGGSGGGGSDIQMTQSPSSLSASVGDRVTITCQANQDISNYLNWYQQKPGKAPKLLIYRASKLEAGVPSRFSGSGSGTDFTLTISSLQPEDFATYYCQQSSEIPYSFGQGTKLEIK
binds	no binding	MAdCAM Antibody Table 1 Clone 27 (scFv) scFv: QVQLVQSGAEVKKPGASVKVSCKASGYTFTGYYIHWVRQAPGQGLEWMGWMNPNSGNTGYAQKFQGRVTMTRDTSTSTVYMELSSLRSEDTAVYYCARDPGFLGYCSGGSCYDGWFDPWGQGTLVTVSSGGGGSGGGGSGGGGSGGGGSDIQMTQSPSSLSASVGDRVTITCRASQSISSYLHWYQQKPGKAPKLLIYAASSLQSGVPSRFSGSGSGTDFTLTISSLQPEDFATYYCQQSYTAPYTFGQGTKLEIK
binds	no binding	MAdCAM Antibody Table 1 Clone 17 (scFv) scFv: EVQLLESGGGLVQPGGSLRLSCAASGFTFSDSAMHWVRQAPGKGLEWVSAISGSGSTIYYADSVKGRFTISRDNSKNTLYLQMNSLRAEDTAVYYCVSDIAVAGHWYFDLWGRGTLVTVSSGGGGSGGGGSGGGGSGGGGSDIQMTQSPSSLSASVGDRVTITCRASQSISTFLNWYQQKPGKAPKLLIYAASRLEGGVPSRFSGSGSGTDFTLTISSLQPEDFATYYCQQANSFPLTFGPGTKVDIK
